Target: wild type presenilin 1 (PS1) (UniProt P49768)
Test: FRET or BRET

- Alexa 430 donor lifetime (FRET): 1230 ps
- Alexa 488 donor lifetime (FLIM), average per cell: 1890 ps
- Alexa 488 donor lifetime (FLIM), cell interior: 2090 ps
- Alexa 488 donor lifetime (FLIM), cell periphery: 1420 ps
- FRET strength normalized to WT APP (normalized to WT APP): 100
Substance: wild type human APP C99 (from UniProt P05067 672-770) (domain or fragment)

From publication PMC2732195
